Laboratory results as given in PMC11928938.

Assays:
Experiment in all cases: SEC; size-exclusion chromatography on Superdex 200 of purified recombinant hGlyRS; dimer and monomer forms fractionated; dimer to monomers
[1] = molecular target: human glycyl-tRNA synthetase S211F variant (hGlyRS-S211F), recombinant (human)
[2] = molecular target: human glycyl-tRNA synthetase, wild type (hGlyRS-WT), recombinant (human)
[3] = molecular target: human glycyl-tRNA synthetase H418R variant (hGlyRS-H418R), recombinant (human)

human glycyl-tRNA synthetase S211F variant (hGlyRS-S211F), recombinant (enzyme)
dimer:monomer (D:M) ratio, dimer part (dimer parts against 6.2 monomer parts) [1]: 3.8

human glycyl-tRNA synthetase, wild type (hGlyRS-WT), recombinant (enzyme)
dimer:monomer (D:M) ratio, dimer part (dimer parts against 0.9 monomer parts) [2]: 9.1 | stoichiometry N [2]: 2

human glycyl-tRNA synthetase H418R variant (hGlyRS-H418R), recombinant (enzyme)
dimer:monomer (D:M) ratio, dimer part (dimer parts against 3.0 monomer parts) [3]: 7 | stoichiometry N [3]: 2
